According to the nanobody polyreactivity screen of Harvey et al. (2022):

Test: yeast display, Sf9 membrane polyspecificity reagent, FACS + sequencing; frameworks hold sequencing errors
How it was run: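 In a synthetic yeast display library (Saccharomyces cerevisiae BJ5465), nanobody expression was induced with galactose for 36–48 hours. FACS gates were set low and high (top ~1%) using anti-HA fluorescence for expression and streptavidin fluorescence for binding of the Sf9 membrane reagent. Each polyreactivity label is drawn from the gate of origin.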

Sequence	polyreactivity (PSR sort gate)
QVQLVESGGGLVQAGGSLRLICAASGPTFTKANAMVWYRQAPGKERELVAAITDGGSTYADSVKGRFTNSRDNSKNTVYLQMNCLKPEDTAVYYCAKENEVFYDASYDYWGQGTQVTVSS	low polyreactivity
QVQLVESGGGLVQAGGSLRLICAASGRIFCRNTMGWYRQAPGKERELVAAINYSGGRTYYADSVKGRFTISRDNAKNTVYLLMNSLKPEDTAVYYCAATPPVATNGRYYYWGQGTQVTVSS	low polyreactivity
QVQLVESGGGLVQAGGSLRLICAASGRIFGDNAMGWYRQAPGKERELVAGIRWRADRTYYADSVKGRFTISRDNAKNTFYLQMNSLKPEDTAVYYCAARGGGYYDFDYWGQGTQVTVSS	low polyreactivity
QVQLVESGGGLVQAGGSLRLICAASGRIFGVYAKGWYRQAPGKERDFVATNSNRGGGSTYYADSVKGRFTISRDNAMNTVYLQMNSLKPEDTSVYYCNVRARYPFGYDYWGQGTQVTVSS	high polyreactivity
QVQLVESGGGLVQAGGSLRLICAASGRIFGYNAMGWSRQAPGKERELVAAIRGSGSTYYADSVKGRFTISRDNAKNTVYLQMNSLKPEDTAVYYCAARTSSTKYYYWGQGTQVTVSS	high polyreactivity
QVQLVESGGGLVQAGGSLRLICAASGRIFHPYAMAWYRQAPGKERELVATISWSGGSTTYEDSVKGRFTISRDNAKNTVYLQMNSLKPEDTAVYYCNADYWWSYVRFVYWGQGTQVTVSS	low polyreactivity
QVQLVESGGGLVQAGGSLRLICAASGRIFKNNAMGWYRQAPGKEREFVAAISSIGGRTYYADSVKGRFTISRDNAKNTVYLQMISLKPEDTAVYYCAARGYTGGLWYDYWGQGTQVTVSS	high polyreactivity
QVQLVESGGGLVQAGGSLRLICAASGRIFLRNDMGWYRQAPGKERELVAGISSDGSTYYADSVNGRFTISRDNAKNTVYLQMNSLKPEDTAVYYCAAERWGNPTDYQFWRPYDYWGQGTQVTVSS	low polyreactivity
QVQLVESGGGLVQAGGSLRLICAASGRIFRGNAMGWYRQAPGKEMELVDTITIRGGSTYYADSVKGRFTISRDNAKNTVYLKMNSLIPEDTAVYYCNTRTYGYLTQKYDYWGQGTQVTVSS	high polyreactivity
QVQLVESGGGLVQAGGSLRLICAASGRIFRYYAMGWYRQAPGKERELVASISWRGGSTYYADSVKGRFTISRDNAKNTVYLQMNSLKPDDTAVYYCNAAPGAFYRWWGFGSDYWGQGTQVTVSS	high polyreactivity
QVQLVESGGGLVQAGGSLRLICAASGRIFYINAMGWYRQPPGKERELVAAITGGDGSTTYADSVKGRFTISRDNAKNTVYLQMNSLKPEDTAVYYCYADTARKYAESQFDHWGQGTQVTVSS	low polyreactivity
QVQLVESGGGLVQAGGSLRLICAASGRIFYNYVMGCYRQAPGKERDLVAAISVSSGNTYYADSVKGRFTISRDYAKITVYLQMNSLKPEDTAVYYCARLRTVGGYSKYDYWGQGTQVTVSS	low polyreactivity
QVQLVESGGGLVQAGGSLRLICAASGRIIARNAMGWYRQAPGKERELVAAITARGARTYYADSVKGRFTISRDNAKNTVYLQMNSLKPEDTAVYYCAVVQGNVYYTGDDYWGQGTQVTVSS	high polyreactivity
QVQLVESGGGLVQAGGSLRLICAASGRILSYYAMGWYRQAPGKERELVATINSGGSTNYADSVKGRFTISRDNAKNTVYLEMNSLKPEDTAVYYCAASPVWWYEYWGQGTQVNVSS	low polyreactivity
QVQLVESGGGLVQAGGSLRLICAASGRILYGNVMGWYRQAPGKERELVAAIDSSGATTYYADSVKGRFTISRDNAKNTVYLQMNSLKPEDTAVYYCAAEVTSFSFGGDATEYYWGQGTQVTVSS	low polyreactivity
QVQLVESGGGLVQAGGSLRLICAASGRISAFNAMGWYRQAPGKERELVAAINVSGGNTYYADSVKGRFTISRDNAKNTVYLQMNSMKPEDTAVYYCAAERRRWGLDYYYWGQGTQVTVSS	high polyreactivity
QVQLVESGGGLVQAGGSLRLICAASGRIYYGYAMGWYRQAPGKERELVSTITWSGGSTYYADSVKGRFTISRDNAKNTVYLQMNSLKPEDTAVYYCAAYSPYIYQAYRYDYWGQGTQVTVSS	low polyreactivity
QVQLVESGGGLVQAGGSLRLICAASGRTFAYNAMGWYRQAPGKERELVAAISYRGTTTYYADSVKGRFTISRDNAKNTVYLQMNSLKPEDTAVYYCNKVGTRFSAYSSGFVLSEYYYWGQGTQVTVSS	high polyreactivity
QVQLVESGGGLVQAGGSLRLICAASGRTFAYYAMGWYIQAPGKERELVAAISSSGGRTYYADSVKGRFTISRDNAKNTVYLQMNSLKPEDTAVYFCAAYTTVKKNGYWGQGTQVTVSS	high polyreactivity
QVQLVESGGGLVQAGGSLRLICAASGRTFDHNAMGWYRQAPGKERELVAAITWSGGITDYADSVKRPFTISRDNAKNTVYLQMNSLKPEDTAVWGQGTQVTVSS	low polyreactivity
QVQLVESGGGLVQAGGSLRLICAASGRTFDRYDMGWYRPAPGKERALVATISSSGGSTYYADSVKGRFTISRDNAKNTVYLQMNSLKPEDTAVYYCAADPSGYYWGQGSQVTVSS	low polyreactivity
QVQLVESGGGLVQAGGSLRLICAASGRTFGVYAMGWYRQAPGKERELVADITSGGGTYYADSVKGRFTILRDNAKNTFYLQMNSLKPEDTAVYYFAARKWYYAYDYWGQGTQVTVSS	high polyreactivity

Sequence	polyreactivity (PSR sort gate)
QVQLVESGGGLVQAGGSLRLICAASGRTFKFNAMGWYRQAPGKERELVARITGGRTNYADSVKGRFTISRDNAKNTVYLQLNSLKPEDTAVYYCAADRYYGYSQDRRRYGYWGQGTQVTVSS	high polyreactivity
QVQLVESGGGLVQAGGSLRLICAASGRTFKYYAMGWYRPAPGKERELVATISFRGGSTYYADSVKGRFTISRDNAKNTVYLQMNSLKPEDTSVYYCAATTPYYTPRRRNDYWGQGTQVTVSS	high polyreactivity
QVQLVESGGGLVQAGGSLRLICAASGRTFNINGMGWYRQAPGKERELVAAITTSGGSTYYADSVKGRFTISRDNAKNTVYLQMNSLKPEDTAVYYCAADVFSRKYLYGDYDYWGQGTQVTVSS	high polyreactivity
QVQLVESGGGLVQAGGSLRLICAASGRTFPGYGMGWYRQAPGKERELVAVITSNGGITYYADSVKGRFTISRDNAKNTVYLQMNSLKPEDTAVYYCAAYEIYNEFDSWGQGTQVTVSS	low polyreactivity
QVQLVESGGGLVQAGGSLRLICAASGRTFPRYTMGWYRQEPGNERELVAAISWRGGRTYYADSVKGRFTISLDNAKNTVYLLMNSLKPEDTAVYYCNAQKRDGSMGYWGQGTQVTVSS	high polyreactivity
QVQLVESGGGLVQAGGSLRLICAASGRTFPYNAMGWYRQAPGKEREFVAVISKGGGRTYYADSVKGRFTISRDNAKNTVYLQMNSLKPEDTAVYYCAKRIGLTFWGQGTQVTVSS	high polyreactivity
QVQLVESGGGLVQAGGSLRLICAASGRTFPYNTMGWYRQAPGKERELVAGISIRGSSTYYADSVKGRFTISRDNAKNTVYLQMNSLKPEDTAVYYCAKRYYGWYGNFDYWGQGTQVTVSS	high polyreactivity
QVQLVESGGGLVQAGGSLRLICAASGRTFRGNAKGCYRQAPGKERELVAAISGRGTNTYYADSVKGRFTISRDNAKNTVYLQMNSLKPEDTAVYYCAKVFYSYRDHYDYWGQGTQVTVSS	high polyreactivity
QVQLVESGGGLVQAGGSLRLICAASGRTFRGYAMGWYRQAPGKERELVAAISVTGSSTNYADSVKGRFTISRDNAKNTVYLQMNSLKPEDTAVYYCNAKRVRYSLSYDYWGQGTQVTVSS	high polyreactivity
QVQLVESGGGLVQAGGSLRLICAASGRTFRYNAMGWYRQAPGKERELVAAITLGASRTYYADSVKGRFTISRDNAKNTVYLQMNSLKPEDTAVYYCNAVGRRNVDSSLNDYWGQGTQVTVSS	low polyreactivity
QVQLVESGGGLVQAGGSLRLICAASGRTFTGYTMGWYRQAPGKEREFVAAISSNGGRTYYADSVKGRFTISRDNAKNTVYLQMNSLKPEDTAVYYCAAPYTFWGQGTQVTVSS	high polyreactivity
QVQLVESGGGLVQAGGSLRLICAASGRTFTRYAMGWYRQAPGKERELVAAITSGDSTYYADSVKGRFTISRDNAKNTVYLQMNSLKPEDTAVYYCAARTSYGYWYRRRYYYWGQGTQVTVSS	high polyreactivity
QVQLVESGGGLVQAGGSLRLICAASGRTFVPNVMGWYRQAPGKERELVAAITSGGSTYYADSVKGRFTISRDNAKNTVYLQMNSLKPEDTAVYYCAKRTSWKYGYWGQGTQVTVSS	high polyreactivity
QVQLVESGGGLVQAGGSLRLICAASGRTFYPSVMGWYRQAPGKERELVARIRWSGSSTYYADSVKGRFTISRDNAKNTVYLQMNSLKPEDTAVYYCNARPSWYVLGSSVHSGMGYWGQGTQVTVSS	high polyreactivity
QVQLVESGGGLVQAGGSLRLICAASGRTFYWNAMGWYRQAPGKERELVAAISDGGGSTYYADSVKGRFTISRDNAKNTVYLQMNSLKPEDTAVYYCNTPDNQDKPYPGYDYWGQGTQVTVSS	low polyreactivity
QVQLVESGGGLVQAGGSLRLICAASGRTIYIYTMGWYRQAPGKERELVASISWNGGRTYYADSVKGRFTISRDNAKNTVYLQMNSLKPEDTAVYYCAAQYGVYDYLGQGTQVTVSS	low polyreactivity
QVQLVESGGGLVQAGGSLRLICAASGSIFDYYDMGWYRQAPGKERELVAANNWSGGITYYADSVKGRFTISRDYAKNTVYLQMNSLKPEDTEVYFCAADWYQWVYSSSITSFDYWGQGTQVTVSS	low polyreactivity
QVQLVESGGGLVQAGGSLRLICAASGSIFFSYAMGSYRQAPGKERELVAGINRSGGSTYADSVKGRFTISRDNAKNTVNLQMTSLKPEDTAVYYCAAKYYSERSRYHYWGQGTQVTVSS	low polyreactivity
QVQLVESGGGLVQAGGSLRLICAASGSIFGINAMGWYRQAPGKERELVAAITWSGTSTYYADSVKGRFTISRDNAKNTDYLQMNSMKPEDTAVYYCAARVGRGYRTYGYWGQGTQVTVSS	high polyreactivity
QVQLVESGGGLVQAGGSLRLICAASGSIFGYYAMGWYRQAPGKERELVAGITNSGDTNYADSVKGRFTISRDNAKNTVYLQMNSLKPEDTAVYYCAADGSYQYYYWGQGTQVTVSS	low polyreactivity
QVQLVESGGGLVQAGGSLRLICAASGSIFINNGMGWYRQAPGKERELVAAINGGDGSTYYADSVKGRFTISRDNAKNTVYLQMNSLKPEDTAVYYCAADQVTYSVEYDYWGQGTQVTVSS	low polyreactivity
